# Source: the DeepSol protein solubility set
# Experiment: soluble on expression in E. coli; label from the status in PepcDB or PDB records
row,Sequence,soluble on expression in E. coli
1,MSLKKISFIINGQVEIFPESDDLVQSINFGDNSVYLPILNNSHVKNIIDYNENNKLRLHNIVNFLYTVGQRWKNEEYSRRRTYIRDLKKYMGYSEAMAKLEANWISMILCSKGGLYDVVENELGSRHIMDEWLPQDESYIKAFPKGKSIHLLAGNVPLSGIMSILRAILTKNQCIIKTSSTDPFTANALALSFIDVDPNHPITRSLSVVYWPHQGDTSLAKEIMQHMDVIVAWGGEDAINWAVEHAPPYADVIKFGSKKSFCIIDNPVDLTSAATGAAHDICFYDQRACFSAQNIYYMGNQYEEFKLALIEKLNLYAHILPNAKKDFDEKAAYSLVQKESLFAGLKVEVDVHQRWMIIESNAGVEFNQPLGRCVYLHHVDNIEQVLPYVQKNKTQTISIFPWESAFKYRDALALRGAERIVEAGMNNIFRVGGSHDGMRPLQRLVTYISHERPSHYTAKDVAVEIEQTREGHHHHHH,soluble
2,MSLKKTQQKEIENVTNITGVRQIELWRRDDLQHPRLDEVAEEVPVALVYNGISHVVMMASPKDLEYFALGFSLSEGIIESPRDIFGMDVVPSCNGLEVQIELSSRRFMGLKERRRALAGRTGCGVCGVEQLNDIGKPVQPLPFTQTFDLNKLDDALRHLNDFQPVGQLTGCTHAAAWMLPSGELVGGHEDVGRHVALDKLLGRRSQEGESWQQGAVLVSSRASYEMVQKSAMCGVEILFAVSAATTLAVEVAERCNLTLVGFCKPGRATVYTHPQRLSNEGHHHHHH,soluble
3,MSLKKWFTILTFVLTAFLVTRTAIAETSPYVLMQQAADKLFSDIQANQSKIKQDPNYLRTIVRNDLLPYVNLEYAGSKVLGSYYKSTSAEQREKFFKTFGELIEQKYAQALTNYSNQKIQIESEKELGDNNFINIRVNIIQANGVAPILLYFKWRKGNKSGEWKVYDMVGAGVSMLEDTIKNWVGILNKQGIDTLITKMQQSASQPIIFNQEGGSHHHHHH,soluble
4,MSLKLTPEAAGTFAIAPTPFHDDGKIDDVSIDRLTDFYAEVGCEGVTVLGILGEAPKLDAAEAEAVATRFIKRAKSMQVIVGVSAPGFAAMRRLARLSMDAGAAGVMIAPPPSLRTDEQITTYFRQATEAIGDDVPWVLQDYPLTLSVVMTPKVIRQIVMDSASCVMLKHEDWPGLEKITTLRGFQKDGSLRPLSILCGNGGLFLDFEMERGADGAMTGYCFPDMLVDVVKLSKAGQRDLAHNLFDAHLPLIRYEHQQGVGLSVRKYVLKKRGLLSSSAQRKPGASLTDTAREEVDYLLSRLARVDKRADFEPRTKAAEEGHHHHHH,soluble
5,MSLKLWKNATFYQMTAEGDQVSAVLTENGQICAVGEAMDLEKQYVANITETIDLEGKVVFPGFVDAHIHLLWYGQALERLNLNQTTTKKEALALIAERTKQIASDEWLFVEGYDENKWSDEQTLISLADLDEVSQTNPILVRRIDYHSVSINSALQEKIADFSETGFDGGGEIVRDKTGEFIGVLRDNATTMAIDSFPAATPSELSAWLEIAITDLWSKGITGAHSEDLHYFTGFASTLAAFRNTIGSNKMPFRAHLLVHHAELAAFSASNESFVSGDAFLELGAMKIFYDGTVGSRTALMSAGYADNPSEKGLQIHSDQAFEDLVKAARKAGLPVAIHILGDQAFANVIRTLRANPPKEGQYDRLIHTPWLTEALIEEATGLPVLFDIQPQFMASDLPWALEVLGDNHPPLAFAWKTLLQAGFPLAGGSDAPIEVPNPFWGIHAAVTRTANADLDGVGYWPEQALTVFEAIQLYTKGAAFASYKTTTRGQIAPGFVADFTILAEDPFQMKQAELRQVSVVMTVVNEQIVYQKKEGHHHHHH,soluble
6,MSLKNIRHIYYVSENTGLLAKDSGKSLLCQFPGVEFQEELLPFIRTKDDAQRTINAIREKCGEEKPIIFSTIFDPEINKILQHEDVILLNICEPFLTQLEGMLGKNALRASGHSRNVDQQIMSNRVDAIHYTISHDDGTAIMDYEEADLIIVGVSRSGKTPISVFLATQMGIKTANYPLVEQDLTFCQLPEDIIKNKHKVVGLSISPDVLHTFREQRYKGSHYAQMSTCKRETLQSKRIFEKYDLPVVFSDARSIEETATQVAQELSKQWNPIFEGHHHHHH,soluble
